The text below walks through data of US7067268.

The target of experiment [1] is P2L-2Ca. Description: competitive EIA: unlabeled antigen varied against HRP-labeled 19P2 ligand (17-31) on P2L-2C.
The target of experiment [2] is P2L-3Ta. Description: competitive EIA against HRP-labeled 19P2 ligand (12-25); sentence prints 'P2L-1Ta' but stands in the P2L-3Ta passage and cites FIG. 7(b).
Experiment [3] has as its target P2L-1Ta. In words: competitive EIA: unlabeled antigen varied against HRP-labeled 19P2 ligand (12-25) on P2L-1Ta.
Experiment [4] has as its target P2L-3Ta. In words: competitive EIA against HRP-labeled 19P2 ligand (12-25); 'higher' as printed, though 25 nM against 4 nM points to lower.
Experiment [5] addresses P2L-1Ta. In words: competitive EIA on P2L-1Ta; FIG. 7(a).
The target of the next experiment is P2L-1Ca. In words: competitive EIA: unlabeled antigen varied against HRP-labeled 19P2 ligand (17-31) on P2L-1C.
Experiment [6] addresses P2L-2Ca. In words: competitive EIA on P2L-2C; ratio of the antigen concentrations giving (B/B0)=0.5.
The target in experiment [7] is P2L-3Ta. In words: competitive EIA: unlabeled antigen varied against HRP-labeled 19P2 ligand (12-25) on P2L-3Ta.
For experiment [8], the target named is these antibodies (P2L-1Ta, P2L-3Ta, P2L-2Ta and P2L-4Ta). Description: competitive EIA against HRP-labeled 19P2 ligand (12-25); P2L-1Ta, P2L-3Ta, P2L-2Ta, P2L-4Ta (FIG. 9).

No end group written: not given here.

On to SRAHQHSMEIRTPDINPAWYAGRGIRPVGRF-NH2 [Bovine 19P2 ligand (1-31)], for which the IC50 with P2L-2Ca [1] was determined as 50 nM.
TPDINPAWYASRGIRPVGRF-NH2 [Human 19P2 ligand (12-31)]: in the experiment with P2L-3Ta [2], the IC50 came out at 7 nM and the fold of the reactivity against human 19P2 ligand (1-31) was found to be 0.5 fold. This molecule also displayed an IC50 with P2L-1Ta [3] of 4 nM.
For SRAHQHSMETRTPDINPAWYTGRGIRPVGRF-NH2 [Rat 19P2 ligand (1-31)], the fold of the reactivity against human 19P2 ligand (1-31) was 6 fold with P2L-3Ta [4] and 4 fold with P2L-1Ta [5]. For the same molecule, the IC50 worked out at 25 nM with P2L-3Ta [2], 200 nM with P2L-2Ca [1] and 1 nM with P2L-1Ta [3].
Consider SRTHRHSMEIRTPDINPAWYASRGIRPVGRX (C-terminal amide) [Human 19P2 ligand (1-31)], for which the IC50 in the experiment with P2L-1Ca was 3 nM; with P2L-2Ca [1], 1.5 nM; with P2L-3Ta [7] it was 4 nM; with P2L-1Ta [3], 4 nM; in experiment [8] it was 3 to 50 nM. In addition, the fold of the reactivity against bovine 19P2 ligand (1-31) in the experiment with P2L-2Ca [6] stood at 33 fold. For the same molecule, in the experiment with P2L-2Ca [6], the fold of the reactivity against rat 19P2 ligand (1-31) amounted to 130 fold. The antigen concentration detected, (B/B0)=0.9 with P2L-1Ta [3] was 0.1 nM.
